# Reference: patent US7375083B2, “Pharmaceutical compositions for prevention of overdose or abuse” (Shire LLC, priority 2003, dated 2008)
# Where a SMILES comes first, the peptide text is derived from it. The star is where a group is joined. X1 = COc1ccc2c3c1O[C@H]1C(O*)=CC[C@H]4[C@@H](C2)N(C)CC[C@]314
# What was measured:
# [1] = Oral pharmacokinetics in rats, plasma d-amphetamine by ELISA; details: for Percent AUC / Percent Cmax: Oral; for Bioequivalence with amphetamine: rat, oral
# [2] = in vivo; cited from earlier work
# [3] = Intranasal bioavailability of hydrocodone conjugates in rats, LC/MS/MS; details: intranasal, 1 mg/kg dose; for AUC (ng/ml h) 0-1 h / Cmax: hydrocodone plus hydromorphone; for Percent HC (AUC) / Percent HC (Cmax): relative to hydrocodone bitartrate
# [4] = Intravenous bioavailability of hydrocodone conjugates in rats, LC/MS/MS; details: intravenous, 1 mg/kg dose
# [5] = Oral bioavailability of hydrocodone conjugates in rats, LC/MS/MS; details: for AUC (ng/ml h) 0-8 h / Cmax: hydrocodone plus hydromorphone; for Percent HC (AUC) / Percent HC (Cmax): relative to hydrocodone bitartrate
# [6] = relative to amphetamine (first value where two are given)
# [7] = relative to amphetamine, second of two values printed in the cell
# [8] = relative to hydrocodone bitartrate
smiles,measurement,setting,value
CC(Cc1ccccc1)NC(=O)CNC(=O)[C@@H](N)CCCCN (some centres unmarked) [KG-Amp],Percent AUC,[1]; [6],69%
same,Percent Cmax,[1]; [6],71%
CC(C)CC(N)C(=O)NC(C)Cc1ccccc1 [L-Amp],Percent AUC,[1]; [6],65%
same,Percent Cmax,[1]; [6],81%
CC(C)C[C@H](N)C(=O)N[C@@H](CCC(=O)O)C(=O)NC(C)Cc1ccccc1 (some centres unmarked) [LE-Amp],Percent AUC,[1]; [6],40%
same,Percent Cmax,[1]; [6],28%
COc1ccc2c3c1O[C@H]1C(=O)CC[C@@]4(O)[C@@H](C2)N(C)CC[C@]314 [Oxycodone],Therapeutic plasma concentration,[2],10 to 100 ng/mL
same,Toxic plasma concentration,[2],greater than 200 ng/mL
"CC(Cc1ccccc1)NC(=O)C(N)Cc1ccccc1 (centres unmarked) [Phe-Amp, 2-amino-3-phenylpropanoic acid-(1-methyl-2-phenylethyl)-amide]",Bioequivalence with amphetamine,[1],bioequivalent with amphetamine
CC(Cc1ccccc1)NC(=O)C(N)CO (centres unmarked) [S-Amp],Percent AUC,[1]; [6],79%
same,Percent Cmax,[1]; [6],62%
same,Percent AUC,[1]; [7],55%
same,Percent Cmax,[1]; [7],75%
"CC(Cc1ccccc1)NC(=O)C(N)CO (centres unmarked) [Ser-Amp, 2-amino-3-hydroxylpropanoic acid-(1-methyl-2-phenylethyl)-amide]",Bioequivalence with amphetamine,[1],not bioequivalent with amphetamine
CC[C@H](C)[C@H](NC(=O)[C@H](Cc1ccccc1)NC(=O)[C@H](Cc1ccccc1)NC(=O)[C@H](Cc1ccc(O)cc1)NC(=O)[C@@H](N)Cc1ccc(O)cc1)C(=O)OC1=CC[C@H]2[C@H]3Cc4ccc(OC)c5c4[C@@]2(CCN3C)[C@H]1O5 [YYFFI[SEQ ID NO: 3]-HC] (H-YYFFI-X1),hydrocodone plus hydromorphone concentration,[3]; 5 Minutes,28 ng/mL
same,hydrocodone plus hydromorphone concentration,[3]; 15 Minutes,27 ng/mL
same,hydrocodone plus hydromorphone concentration,[3]; 30 Minutes,16 ng/mL
same,hydrocodone plus hydromorphone concentration,[3]; 60 Minutes,21 ng/mL
same,AUC (ng/ml h) 0-1 h,[3],20 ng·h/mL
same,Cmax,[3],28 ng/mL
same,Percent HC (AUC),[3],100%
same,Percent HC (Cmax),[3],5%
"CC[C@H](C)[C@H](NC(=O)[C@H](Cc1ccc(O)cc1)NC(=O)[C@@H](N)Cc1ccc(O)cc1)C(=O)OC1=CC[C@H]2[C@H]3Cc4ccc(OC)c5c4[C@@]2(CCN3C)[C@H]1O5 [YYI-HC, Tyr-Tyr-Ile-Hydrocodone]",hydrocodone plus hydromorphone concentration,[4]; 5 Minutes,9 ng/mL
same,hydrocodone plus hydromorphone concentration,[4]; 15 Minutes,13 ng/mL
same,hydrocodone plus hydromorphone concentration,[4]; 30 Minutes,13 ng/mL
same,hydrocodone plus hydromorphone concentration,[4]; 60 Minutes,3 ng/mL
same,AUC (ng/ml h) 0-1 h,[4]; hydrocodone plus hydromorphone,10 ng·h/mL
same,Cmax,[4]; hydrocodone plus hydromorphone,13 ng/mL
same,Percent HC (AUC),[4]; [8],7%
same,Percent HC (Cmax),[4]; [8],6%
same,Percent Decrease 1 mg/kg vs. 5 mg/kg AUC,[5]; oral bioavailability,41%
same,Percent Decrease 1 mg/kg vs. 5 mg/kg Cmax,[5]; oral bioavailability,60%
same,hydrocodone plus hydromorphone concentration,"[5]; oral, 1 mg/kg dose, 0.5 Hours",9.2 ng/mL
same,hydrocodone plus hydromorphone concentration,"[5]; oral, 1 mg/kg dose, 1.5 Hours",4.3 ng/mL
same,hydrocodone plus hydromorphone concentration,"[5]; oral, 1 mg/kg dose, 3 Hours",1.5 ng/mL
same,hydrocodone plus hydromorphone concentration,"[5]; oral, 1 mg/kg dose, 5 Hours",1.1 ng/mL
same,hydrocodone plus hydromorphone concentration,"[5]; oral, 1 mg/kg dose, 8 Hours",1.8 ng/mL
same,AUC (ng/ml h) 0-8 h,"[5]; oral, 1 mg/kg dose",20.4 ng·h/mL
same,Cmax,"[5]; oral, 1 mg/kg dose",9.2 ng/mL
same,Percent HC (AUC),"[5]; oral, 1 mg/kg dose",78%
same,Percent HC (Cmax),"[5]; oral, 1 mg/kg dose",100%
same,hydrocodone plus hydromorphone concentration,"[5]; oral, 5 mg/kg dose, 0.5 Hours",15 ng/mL
same,hydrocodone plus hydromorphone concentration,"[5]; oral, 5 mg/kg dose, 1.5 Hours",6.3 ng/mL
same,hydrocodone plus hydromorphone concentration,"[5]; oral, 5 mg/kg dose, 3 Hours",3.3 ng/mL
same,hydrocodone plus hydromorphone concentration,"[5]; oral, 5 mg/kg dose, 5 Hours",1.6 ng/mL
same,hydrocodone plus hydromorphone concentration,"[5]; oral, 5 mg/kg dose, 8 Hours",2.7 ng/mL
same,AUC (ng/ml h) 0-8 h,"[5]; oral, 5 mg/kg dose",33 ng·h/mL
same,Cmax,"[5]; oral, 5 mg/kg dose",15 ng/mL
same,Percent HC (AUC),"[5]; oral, 5 mg/kg dose",46%
same,Percent HC (Cmax),"[5]; oral, 5 mg/kg dose",41%
same,Peak levels and bioavailability,"[5]; rat, oral, 5 mg/kg",substantially decreased
same,hydrocodone plus hydromorphone concentration,[3]; 5 Minutes,31 ng/mL
same,hydrocodone plus hydromorphone concentration,[3]; 15 Minutes,17 ng/mL
same,hydrocodone plus hydromorphone concentration,[3]; 30 Minutes,12 ng/mL
same,hydrocodone plus hydromorphone concentration,[3]; 60 Minutes,2 ng/mL
same,AUC (ng/ml h) 0-1 h,[3],12 ng·h/mL
same,Cmax,[3],31 ng/mL
same,Percent HC (AUC),[3],4%
same,Percent HC (Cmax),[3],6%
